Columns and labels:
[1] = molecular target: S2P.BA5.VI-1147 D571C/N967C (D17) (SARS CoV-2 omicron BA.5); assay: cross-linking
[2] = molecular target: S2P.BA5.VI-1147 A570C/N967C (I1) (SARS CoV-2 omicron BA.5); assay: cross-linking

Row | Substance | stoichiometry N [1] | stoichiometry N [2]
1 | S2P.BA5.VI-1147 D571C/N967C (D17) (domain or fragment) | 3 | –
2 | S2P.BA5.VI-1147 A570C/N967C (I1) (domain or fragment) | – | 3
